Consider four variants from PMC8754651 (2021).

The labels stand for the following.
B1: human RPB6 (residues 1–24), NTT peptide [human] / human TFIIH p62 PH domain (PH-D) (residues 1–108) [human] (parent complex)
chain 1: MSDNEDNFDGDDFDDVEEDEGLDD
chain 2: MATSSEEVLLIVKKVRQKKQDGALYLMAERIAWAPEGKDRFTISHMYADIKCQKISPEGKAKIQLQLVLHAGDTTNFHFSNESTAVKERDAVKDLLQQLLPKFKRKAN

The variants in this test derive from B1. As to the kind of experiment: ITC. In general terms: In ITC the heat of successive injections is recorded.
In general, Kd refers to the free concentration of one partner at which half of the binding sites on the other are occupied at equilibrium, for simple one-to-one binding. Regarding chain 1 MADNEDNFDGDDFDDVEEDEGLDD [chain 1 S2A], the dissociation constant Kd is 3.65 µM.

Take chain 1 MSDNEDNADGDDFDDVEEDEGLDD [chain 1 F8A]: the Kd was found to be 2.85 µM.

In the case of chain 1 MSDNEDNFDGDDADDAEEDEGLDD [chain 1 F13A, chain 1 V16A], the Kd turned out to be 7.35 µM.

For the variant chain 1 MSDNEDNFDGDDFDDAEEDEGLDD [chain 1 V16A], the Kd was found to be 7.14 µM.
